The values that follow come from article PMC11005723, “Development of Complementary Photo‐arginine/lysine to Promote Discovery of Arg/Lys hPTMs Interactomes” (Advanced Science, 2024).

The target of the experiment is His‐DPF2PHD (residues 270–391) (UniProt Q92785). Briefly: ITC; 25 °C, MicroCal PEAQ-ITC; protein in the cell titrated with 19 injections of peptide. (Isothermal titration calorimetry measures the heat released or taken up as one component is titrated into another.)

pKd: −log10 of the molar value.

His‐DPF2PHD (residues 270–391), sequence (Q92785 270-391): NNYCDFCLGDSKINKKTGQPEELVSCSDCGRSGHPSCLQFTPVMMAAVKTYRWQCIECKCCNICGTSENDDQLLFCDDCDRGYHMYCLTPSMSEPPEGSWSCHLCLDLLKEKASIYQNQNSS

As to “native H3R2 peptide (H3_(1‐15) without diazirine and biotin)”, the pKd – broadly, the negative decadic logarithm of the Kd, by convention in mol/L – was 5.46.
